The subject of experiment [1] is proliferating neural progenitor cells. Description: Immunoblotting of Sox2 and DCX in proliferating neural progenitor cells. Format: cell-based, rat. The note with it: MANF 20 ng/ml, proliferation condition. On the procedure: Specifically, hippocampal-derived neural stem cells were isolated from the brain of E16 rat embryos. Hippocampal ridges were minced from the embryonic forebrains of E16 rats using sterile fine tweezers under a dissecting microscope. The tissues were collected, mechanically separated using a pipette in Ca^2+/Mg^2+-freeHBSS (Invitrogen) solution, and planted at 19,000 cells/cm^2 in 35 mm culture dishes precoated with 15 µg/ml poly-L-ornithine and 1 µg/ml fibronectin (Sigma). The cells were cultured under the condition of 5% CO2 for 3 days using a serum-free N2 medium (medium for proliferation) supplemented with 10 ng/mL basic fibroblast growth factor(bFGF, Invitrogen). Thereafter, the cells were removed using 0.05% trypsin/EDTA (ethylene-diamine-tetraacetic acid), and neural progenitor cells were planted on a 12 mm glass coverglass (Belco) for immunostaining and on a 100 mm dish for immunoblotting and cultured in N2 medium for proliferation containing bFGF for 1 day. Thereafter, in the proliferation condition, the medium continuously containing bFGF was treated with MANF at the indicated concentration and cultured for 2-3 days; and in the differentiation condition, MANF was added to the medium for differentiation not containing bFGF, which was cultured for 3-7 days. In the control group (vehicle), physiological saline was added in the same volume instead of MANF.
(A western blot detects proteins with antibodies after separation by electrophoresis.)

The subject of experiment [2] is primary neural progenitor cells. The experiment in a line: GAD-GFP reporter plasmid assay of GABAergic nerve cell differentiation. The note with it: MANF 30 ng/ml. Format: cell-based, rat. The source says:
In order to efficiently investigate the differentiation of the primary neural progenitor cells into GABAergic nerve cells by MANF, a plasmid (GAD-GFP) capable of easily and effectively observing and detecting the differentiation into the GABAergic nerve cells with the naked eye by recombining green fluorescent protein (GFP), a fluorescent protein, into the promoter region of the human GAD gene was used. When the activity of the promoter is increased, the differentiation into GABAergic nerve cells is promoted, and whether or not the activity of the promoter is increased can be monitored by the expression level of a reporter gene operably linked thereto. Accordingly, it can be seen that the differentiation into GABAergic nerve cells is promoted when the expression level of the reporter gene is increased. In addition, it is possible to easily observe the differentiation of GABAergic nerve cells using a transcription factor that binds to the promoter.
Specifically, on day 3 after culturing the primary neural progenitor cells, the cells were separated from the dish with 0.05% trypsin and subcultured, and then all groups were transfected with GAD-GFP DNA. The cells were seeded in a 24-well plate and cultured in N2 medium containing 10 ng/mL bFGF for 24 hours. N2 medium for differentiation without bFGF was treated with MANF at a concentration of 30 ng/ml, and after 3 and 5 days, it was fixed and stained.

Experiment [3] relates to hippocampus of IBO-administered memory impairment and autism model. Description: Immunohistochemical analysis of brain tissue (BrdU, SOX2, DCX, NeuN, GAD67, CNPase). The note with it: brain tissue after behavioral experiment. In kind it is in vivo, rat. On the procedure: The brain tissue stored in the same method as the immunostaining of Example 9-1 was washed twice with PBS, permeated in 0.5% Triton X-100 for 20 minutes, and cultured in 2N HCl at 37° C. for 30 minutes. Thereafter, blocking was performed in 15% standard serum, 3% bovine serum albumin (bio-WORLD, Dublin, OH, USA) and 0.1% Triton X-100 in a free-floating state for 2 hours. The tissue was doubly stained at 4° C. for 16 hours using BrdU (abcam, 1:700) antibody, SOX2 (R&D system, MAB2018, 1:2000), DCX (Santacruz, sc8066, 1:1000), NeuN (Millipore, MAB377B, 1:700), CNPase (Abcam, ab6319, 1:700), vGluT1 (Millipore, MAB5502, 1:700), GAD67 (Millipore, MAB5406, 1:2000) as primary antibodies. As secondary antibodies, mo-Alexa 488 (Invitrogen, A21202, 1:700), mo-Cy3 (Jackson lab, 715-165-151, 1:500), rb-Alexa 488 (Jackson lab, 711-546-152, 1:700), rat-Alexa 488 (Abcam, ab6326, 1:700), etc. were used. Immunostained tissues were scanned with a confocal microscope (LSM510, LSM800 Carl Zeiss, Oberkochen, Germany).
The number of differentiation markers in the hippocampus of each experimental animal was shown by counting the number of DAPI-labeled cells in the double and triple photographed slides and counting the number of each cells labeled by fluorescently labeling each differentiation marker, NeuN, CNPase, GAD and vGluT1. Here was counted the number of cells labeled with the secondary antibody that is precisely matched in shape and location and has the shape of a cell.

B1: MANF: one of 16 or more growth factors secreted into nerve stem cells by cerebrovascular cells; amino acid sequence of SEQ ID NO: 1 (protein)
chain: MRRMWATQGLAVALALSVLPGSRALRPGDCEVCISYLGRFYQDLKDRDVTFSPATIENELIKFCREARGKENRLCYYIGATDDAATKIINEVSKPLAHHIPVEKICEKLKKKDSQICELKYDKQIDLSTVDLKKLRVKELKKILDDWGETCKGCAEKSDYIRKINELMPKYAPKAASARTDL
modifications: MANF
Turning to B1, in experiment [1], the DCX immunoblot entry was “significantly increased” and the Sox2 immunoblot entry was “significantly increased”. The “number of NeuN-stained cells in MANF-treated group vs Con group” value in experiment [2] (3 and 5 days) is listed as “no greater increase”. Moreover, the “GFP-positive cells (GAD promoter-GFP, GABAergic differentiation)” value in experiment [2] (3 and 5 days, vs Con group) was “increased compared to the Con group”. Further, the “number of NeuN-stained cells” value in experiment [2] (after 3 days of differentiation) stood at 10%. In addition, in experiment [2] (after 5 days of differentiation), the “number of NeuN-stained cells” value stood at 50%. For the same molecule, in experiment [3], the “differentiation of newly proliferated (BrdU stained) neural progenitor cells into GABAergic nerve cells (GAD)” value was “increased”, the “differentiation of newly proliferated (BrdU stained) neural progenitor cells into mature nerve cells (NeuN)” value is “increased” and the “differentiation of newly proliferated (BrdU stained) neural progenitor cells into oligodendrocytes (CNPase)” value was “increased”. In experiment [3] (MANF-AAV-hMSC transplanted), the “migration (DCX) of neural stem cells (Sox2+)” value is given as “promoted” and the “proliferation (BrdU+, Ki67) of neural stem cells (Sox2+)” value was “promoted”.
